Laboratory results: patent US20260125649A1, “MEDIUM COMPOSITION AND METHOD FOR CULTURING MESENCHYMAL STEM CELLS” (ACADEMIA SINICA, priority 2018, published 2026)
“Also recorded” adds a separate entry of the source.

Legend:
[1] = system: EpICD binding to the Oct4 promoter; assay: ChIP of EpICD binding to the Oct4 promoter; format: cell-based, human; conditions: EpEX 3 μg/mL, ChIP-qPCR
Protocol: FIG. 12. EpEX increases the binding of EpICD to the promoter of Oct4 by inhibiting let7. (A) MSCs were transfected with let7 inhibitor or mimetics then treated with EpEX (3 μg/mL). Binding of EpICD to the Oct4 promoter was examined by chromatin immunoprecipitation (ChIP). EpICD was pulled down by a specific anti-EpICD antibody. The cross-linked DNA was isolated and then probed by qPCR with specific primers for the Oct4 promoter. (B) MSCs were transfected with let7 inhibitor or mimetics then treated with EpEX (3 μg/mL). Binding of EpICD-HMGA2 was examined by sequential ChIP. EpICD was pulled down by a specific anti-EpICD antibody, followed by pull-down with a HMGA2 antibody. To detect bound Oct4 promoter, the cross-linked DNA was isolated and then amplified by qPCR with specific primers.
We performed chromatin immunoprecipitation (ChIP) with the Pierce™ Magnetic ChIP Kit (Thermo Fisher Scientific), to according the manufacturer's instructions. In brief, the protein-DNA complexes were cross-linked with 1% formaldehyde and quenched by adding glycine to a final concentration of 200 mM. […]
The immunoprecipitated DNA was recovered by a PCR purification kit (Thermo Fisher Scientific), and the purified DNA was subjected to real time quantitative PCR for further analysis. Immunoprecipitation/input was calculated for each gene and each gene was further normalized to the level of mouse β-actin promoter. […]

[2] = biological target: T1, EGFR (Tyr845) (Homo sapiens, UniProt P00533); assay: EGFR phosphorylation (antibody array, Western blotting); format: cell-based; conditions: MSCs treated with the substance (EpEX 3 μg/mL)
T1 construct: host or cells: human primary bone marrow mesenchymal stem cells (BMMSCs)
Protocol: Phospho-EGFR (Tyr845) was detected by Western blotting. […] After treatment, cell cycle progression was investigated by flow cytometry with PI staining. Fraction of cells in each phase (G1, S, G2/M) of the cell cycle was evaluated. Cells that expressed EGFR shRNA or shLuc were treated with EpEX for 18 h. After treatment, cell cycle progression was investigated by flow cytometry with PI staining. Fraction of cells in each phase (G1, S, G2/M) of the cell cycle was evaluated. […] The protein expression of cell cycle regulators (cyclin D1, cyclin D2, cyclin E1) and pluripotency factors (Oct4, Sox2, c-Myc, Lin28) was examined by Western blotting. MSCs expressing EGFR shRNA were stimulated by EpEX. After treatment, the protein expression of cell cycle regulators (cyclin D1, cyclin E1, CDK4 and CDK9) and pluripotency factors (Oct4, in Sox2, c-Myc, and Lin 28) was examined by Western blotting. […] After treatment, the gene expression of pluripotency factors (Oct4, Sox2, c-Myc, Lin28 and EpCAM) was examined by qPCR.
The phosphorylation of EGFR (Tyr845) and STAT3 (Tyr705) were examined by Western blotting with specific antibodies.
Western blotting was performed as previously described (Takahashi et al., 2003). Cells were lysed in lysis buffer (150 mM NaCl, 50 mM Tris-HCl (pH 7.4), 1% Nonidet P-40), containing a protease inhibitor mix (Roche Applied Science). Nuclear fractions and cytoplasmic fractions were separated by the Nuclear/Cytosol Fractionation Kit according to the manufacturer's instructions (BioVision Inc., Milpitas, CA, USA). Protein samples were separated by SDS-PAGE under denaturing conditions, and transferred to a PVDF membrane (Millipore). To probe for pluripotency markers, membranes were incubated with the indicated antibodies against Oct4 (1:1000, Abcam, Cambridge, UK), Nanog (1:1000, Genetex), Lin28 (1:1000, Genetex) or Sox2 (1:1000, Genetex). The CDK and cyclin antibodies were from the CDK and Cyclin Antibody Sampler Kits (Cell Signalling Technology, #9868 and #9869 respectively), including antibodies against cylin D1, D2, E1, and CDK4, CDK9 (1:1000). […]

[3] = system: Oct4, Sox2, c-Myc, Lin28; assay: qPCR of pluripotency factors in MSCs; format: cell-based, human; conditions: EpEX treatment
Text: The expression of let-7 was detected by qPCR. MSCs expressing EGFR shRNA, STAT3 shRNA or Lin28b shRNA were stimulated with EpEX. The expression of let-7 was detected by qPCR. […] Expression of pluripotency factors (Oct4, Sox2, c-Myc and Lin28) was examined by qPCR. MSCs were transfected with a let-7 mimetic, and then stimulated with EpEX. Protein levels of pluripotency factors (Oct4, Sox2, c-Myc, and Lin28) were examined by Western blotting.
Total RNA was extracted using TRI reagent (Invitrogen, CA, USA), and 5 μg of total RNA was reverse transcribed using oligo (dT) primer (Fermentas, Glen Burnie, MD, USA) with SuperScript III reverse transcriptase (Invitrogen). Quantitative real time RT-PCR (qPCR) was performed on cDNA using the Light Cycler 480 SYBR Green I Master kit (Roche Applied Science, Indianapolis, IN) and the LightCycler480 System (Roche Applied Science). The gene expression levels of each sample were normalized to the expression levels of glyceraldehyde 3-phosphate dehydrogenase (GAPDH).

[4] = system: RUNX2; assay: RUNX2 gene expression by qPCR during osteo-induction; format: cell-based, human; conditions: EpEX in osteogenetic medium
Protocol: Calcium precipitation was measured by Alizarin Red S (ARS) staining to probe the efficiency of osteogenesis. […] Quantification of osteogenesis, as measured by ARS staining, is shown for each group. MSCs were induced by osteogenetic medium and treated with EpEX at indicated doses. The gene expression of RUNX2 was examined by qPCR. […] ARS staining was performed to check the efficiency of osteogenesis. MSCs were pretreated with let-7 inhibitor and then treated with EpEX for 14 days during osteo-induction. ARS staining was performed to check the efficiency of osteogenesis. […] RUNX2 gene expression was measured by qPCR. MSCs were pretreated with let-7 inhibitor and induced by EpEX. RUNX2 gene expression was examined by qPCR. […] Upon EpEX stimulation, phosphorylation of EGFR-STAT3 signaling is induced and subsequently upregulates the level of Lin28 which inhibits let-7. […]
Total RNA was extracted using TRI reagent (Invitrogen, CA, USA), and 5 μg of total RNA was reverse transcribed using oligo (dT) primer (Fermentas, Glen Burnie, MD, USA) with SuperScript III reverse transcriptase (Invitrogen). Quantitative real time RT-PCR (qPCR) was performed on cDNA using the Light Cycler 480 SYBR Green I Master kit (Roche Applied Science, Indianapolis, IN) and the LightCycler480 System (Roche Applied Science). […]

[5] = system: γ-secretase; assay: γ-secretase activity assay in MSC lysates; format: cell-based, human; conditions: EpEX-stimulated MSCs
Protocol: FIG. 9. EpEX induces the phosphorylation and activity of TACE and γ-secretase. MSCs were stimulated by EpEX for the indicated times, and the activity of TACE and γ-secretase were detected. MSCs were stimulated by EpEX (3 μg/mL) for the indicated times. Western blot analysis was performed to detect the phosphorylation of TACE and Presenilin 2.
ADAM17 activity was measured using the InnoZyme ADAM17 activity kit (Calbiochem). In brief, cell lysates were harvested and loaded into a TACE antibody-coated plate. After 1 h incubation, the lysate was removed and the plate was washed twice. Substrate was added into each well for 5 h at 37° C. After incubation, the fluorescence signal of the reaction product was detected at excitation of 324 nm and emission of 405 nm. For the detection of γ-secretase activity, cell lysates were extracted and 500 μg protein was used. γ-secretase activity was detected by γ-secretase substrate (35 μM).

B1: EpEX: extracellular domain of human EpCAM, 265 amino acids in length (SEQ ID NO: 2) (protein, listed as Homo sapiens)
chain: MAPPQVLAFGLLLAAATATFAAAQEECVCENYKLAVNCFVNNNRQCQCTSVGAQNTVICSKLAAKCLVMKAEMNGSKLGRRAKPEGALQNNDGLYDPDCDESGLFKAKQCNGTSMCWCVNTAGVRRTDKDTEITCSERVRTYWIIIELKHKAREKPYDSKSLRTALQKEITTRYQLDPKFITSILYENNVITIDLVQNSSQKTQNDVDIADVAYYFEKDVKGESLFHSKKMDLTVNGEQLDLDPGQTLIYYVDEKAPEFSMQGLK
For B1, the “binding of EpICD to the promoter of Oct4” value [1] was “increases”, the “phosphorylation of EGFR at Tyr845” value [2] was “induced EGFR phosphorylation at Tyr845 in a time-dependent manner; also recorded: can induce” and the “expression of the gene for Oct4” value [3] was “can induce”. For the same molecule, the RUNX2 transcript level [4] was “increased” and the “activation of γ-secretase” value [5] was “induced”.
